The term kon denotes the rate constant with which the complex forms. In general, Kd refers to a measure of binding affinity in units of concentration. One may read the koff as the rate constant with which the complex falls apart. Usually stoichiometry N stands for the number of molecules, sites or subunits per partner or assembly.

The values that follow come from publication PMC9576733, “Cryo-EM structures of the translocational binary toxin complex CDTa-bound CDTb-pore from Clostridioides difficile” (Nature Communications, 2022).

Several values for one entry are separate records, joined by “and”; a condition that tells them apart may be missing. Identical values can stand only once.

The target of data set [1] is CDTb-pore, wild type (chymotrypsin-activated CDTb oligomer) (Clostridioides difficile) (UniProt O32739). Nature of the data set: SPR; CDTb-pore (WT, PSS, SPS) amine-coupled on SPRi-Biochip CS-HD, CDTa injected; room temperature, 50 uL/min; pH 5.5, 10 mM MES, 0.15 M NaCl, 1 mM EGTA, 0.005% Surfactant P20, 5 mM CaCl2; 1:1 model; average of two measurements. For orientation: Surface plasmon resonance follows binding to a sensor surface in real time, without labels.

Data set [2] addresses CDTb-pore SPS-loop mutant (NSS > SPS) (Clostridioides difficile) (UniProt O32739). Nature of the data set: SPR; CDTb-pore (WT, PSS, SPS) amine-coupled on SPRi-Biochip CS-HD, CDTa injected; room temperature, 50 uL/min; pH 5.5, 10 mM MES, 0.15 M NaCl, 1 mM EGTA, 0.005% Surfactant P20 (no calcium); 1:1 model; average of two measurements.
Data set [3] deals with CDTb-pore, wild type (chymotrypsin-activated CDTb oligomer) (Clostridioides difficile) (UniProt O32739). The description is as above.
Data set [4] addresses CDTb-pore PSS-loop mutant (NSS > PSS) (Clostridioides difficile) (UniProt O32739). The description is as above.
Data set [5] has as its target CDTb-pore SPS-loop mutant (NSS > SPS) (Clostridioides difficile) (UniProt O32739). Nature of the data set: SPR; CDTb-pore (WT, PSS, SPS) amine-coupled on SPRi-Biochip CS-HD, CDTa injected; room temperature, 50 uL/min; pH 7.4, 10 mM HEPES, 0.15 M NaCl, 1 mM EGTA, 0.005% Surfactant P20, 5 mM CaCl2; 1:1 model; average of two measurements.
The target in data set [6] is CDTb-pore, wild type (chymotrypsin-activated CDTb oligomer) (Clostridioides difficile) (UniProt O32739). The description is as above.
Data set [7] deals with CDTb-pore PSS-loop mutant (NSS > PSS) (Clostridioides difficile) (UniProt O32739). Described as above.
For data set [8], the target named is CDTb-pore, wild type (chymotrypsin-activated CDTb oligomer) (Clostridioides difficile) (UniProt O32739). In words: cryo-EM structure; CDTa without His-tag added to purified WT CDTb-pore at 3-fold molar excess, unbound CDTa not removed; 10 mM HEPES pH 7.5, 1 mM CaCl2, 0.003% LMNG; classes: di-heptamer, long pore, short pore.
For data set [9], the target named is CDTb-pore SPS-loop mutant (NSS > SPS) (Clostridioides difficile) (UniProt O32739). In words: SPR; CDTb-pore (WT, PSS, SPS) amine-coupled on SPRi-Biochip CS-HD, CDTa injected; room temperature, 50 uL/min; pH 7.4, 10 mM HEPES, 0.15 M NaCl, 1 mM EGTA, 0.005% Surfactant P20 (no calcium); 1:1 model; average of two measurements.
Data set [10] addresses CDTb-pore, wild type (chymotrypsin-activated CDTb oligomer) (Clostridioides difficile) (UniProt O32739). The description is as above.
In data set [11] the target is CDTb-pore PSS-loop mutant (NSS > PSS) (Clostridioides difficile) (UniProt O32739). The data set is described as above.
The target in data set [12] is CDTb-pore SPS-loop mutant (NSS > SPS) (Clostridioides difficile) (UniProt O32739). Nature of the data set: SPR; CDTb-pore (WT, PSS, SPS) amine-coupled on SPRi-Biochip CS-HD, CDTa injected; room temperature, 50 uL/min; pH 5.5, 10 mM MES, 0.15 M NaCl, 1 mM EGTA, 0.005% Surfactant P20, 5 mM CaCl2; 1:1 model; average of two measurements.
For data set [13], the target named is CDTb-pore PSS-loop mutant (NSS > PSS) (Clostridioides difficile) (UniProt O32739). Described as above.
Data set [14] deals with the molecule itself. In words: density gradient ultracentrifugation; CDTb after alpha-chymotrypsin, 0.03% LMNG 1 h 37 °C (LMNG after or before chymotrypsin); 10-30% glycerol, 50 mM HEPES pH 7.5, 100 mM NaCl, 1 mM CaCl2, 0.003% LMNG, 230,139 x g 16 h; A280 of fractions; protomers to heptamer and heptamer to di-heptamer.

Turning to “CDTa (enzymatic A-component of the Clostridioides difficile binary toxin CDT) (CDTa injected)”, the on-rate (kon) in data set [1] was 152000 M⁻¹ s⁻¹.
In the case of “CDTa (enzymatic A-component of the Clostridioides difficile binary toxin CDT) (enzyme)”, the equilibrium dissociation constant (Kd) in data set [2] turned out to be 1.61 nM; in [3] it was 1.53 nM; in [4], 2.27 nM; in data set [5], 1.89 nM; in data set [6] it was 3.27 nM; in data set [7], 4.93 nM. The Kd was determined as 26.2 nM in data set [9]; 28.6 nM in [10]; 55.1 nM in data set [11]; 2.69 nM in [12]; 2.86 nM in data set [1]; 2.29 nM in [13]. The koff in [2] was found to be 0.000709 s⁻¹; in data set [3], 0.000763 s⁻¹; in [4], 0.00132 s⁻¹; in [5], 0.000521 s⁻¹; in data set [6], 0.000619 s⁻¹; in data set [7], 0.00108 s⁻¹. The koff in data set [9] was determined as 0.00304 s⁻¹; in data set [10], 0.00413 s⁻¹; in data set [11], 0.00567 s⁻¹; in data set [12], 0.000326 s⁻¹; in data set [1], 0.000436 s⁻¹; in [13], 0.000376 s⁻¹. The kon in data set [2] was determined as 441000 M⁻¹ s⁻¹; in data set [3], 498000 M⁻¹ s⁻¹; in data set [4] it was 584000 M⁻¹ s⁻¹; in data set [5], 276000 M⁻¹ s⁻¹; in data set [6] it was 189000 M⁻¹ s⁻¹; in data set [7], 220000 M⁻¹ s⁻¹. Also, the kon in data set [9] came to 116000 M⁻¹ s⁻¹; in data set [10] it was 144000 M⁻¹ s⁻¹; in data set [11], 103000 M⁻¹ s⁻¹; in [12], 121000 M⁻¹ s⁻¹; in data set [13], 164000 M⁻¹ s⁻¹. The stoichiometry N in data set [8] was determined as 1.

B1: CDTb-pore, wild type (chymotrypsin-activated CDTb oligomer) (complex)
chain: WEDEDLDTDNDNIPDSYERNGYTIKDLIAVKWEDSFAEQGYKKYVSNYLESNTAGDPYTDYEKASGSFDKAIKTEARDPLVAAYPIVGVGMEKLIISTNEHASTDQGKTVSRATTNSKTESNTAGVSVNVGYQNGFTANVTTNYSHTTDNSTAVQDSNGESWNTGLSINKGESAYINANVRYYNTGTAPMYKVTPTTNLVLDGDTLSTIKAQENQIGNNLSPGDTYPKKGLSPLALNTMDQFSSRLIPINYDQLKKLDAGKQIKLETTQVSGNFGTKNSSGQIVTEGNSWSDYISQIDSISASIILDTENESYERRVTAKNLQDPEDKTPELTIGEAIEKAFGATKKDGLLYFNDIPIDESCVELIFDDNTANKIKDSLKTLSDKKIYNVKLERGMNILIKTPTYFTNFDDYNNYPSTWSNVNTTNQDGLQGSANKLNGETKIKIPMSELKPYKRYVFSGYSKDPLTSNSIIVKIKAKEEKTDYLVPEQGYTKFSYEFETTEKDSSNIEITLIGSGTTYLDNLSITELNSTPEILDEPEVKIPTDQEIMDAHKIYFADLNFNPSTGNTYINGMYFAPTQTNKEALDYIQKYRVEATLQYSGFKDIGTKDKEMRNYLGDPNQPKTNYVNLRSYFTGGENIMTYKKLRIYAITPDDRELLVLSVD
notes: CDTb, Clostridioides difficile, UniProt O32739; cloned as amino acids 40-876 (without signal peptide); domains after cleavage are printed as 1' (W214-A296, domain 1 without the pro-peptide) to 4 (T617-D876); Heptameric pore; also found as a di-heptamer (14 chains); also called WT CDTb; NSS-loop
As for B1, the “stoichiometry N” value in data set [14] is 14 and 7.

B2: CDTb F774L mutant (chymotrypsin-activated oligomer) (complex)
chain: WEDEDLDTDNDNIPDSYERNGYTIKDLIAVKWEDSFAEQGYKKYVSNYLESNTAGDPYTDYEKASGSFDKAIKTEARDPLVAAYPIVGVGMEKLIISTNEHASTDQGKTVSRATTNSKTESNTAGVSVNVGYQNGFTANVTTNYSHTTDNSTAVQDSNGESWNTGLSINKGESAYINANVRYYNTGTAPMYKVTPTTNLVLDGDTLSTIKAQENQIGNNLSPGDTYPKKGLSPLALNTMDQFSSRLIPINYDQLKKLDAGKQIKLETTQVSGNFGTKNSSGQIVTEGNSWSDYISQIDSISASIILDTENESYERRVTAKNLQDPEDKTPELTIGEAIEKAFGATKKDGLLYFNDIPIDESCVELIFDDNTANKIKDSLKTLSDKKIYNVKLERGMNILIKTPTYFTNFDDYNNYPSTWSNVNTTNQDGLQGSANKLNGETKIKIPMSELKPYKRYVFSGYSKDPLTSNSIIVKIKAKEEKTDYLVPEQGYTKFSYEFETTEKDSSNIEITLIGSGTTYLDNLSITELNSTPEILDEPEVKIPTDQEIMDAHKIYFADLNLNPSTGNTYINGMYFAPTQTNKEALDYIQKYRVEATLQYSGFKDIGTKDKEMRNYLGDPNQPKTNYVNLRSYFTGGENIMTYKKLRIYAITPDDRELLVLSVD
notes: CDTb, Clostridioides difficile, UniProt O32739; cloned as amino acids 40-876; domains after cleavage printed as W214-D876; Prepared by the same protocol as wild type, without LMNG pretreatment; source: E. coli BL21 Star (DE3), purified as wild type (Glutathione Sepharose 4B), alpha-chymotrypsin, LMNG
Consider B2, for which, in data set [14], the “stoichiometry N” value is 14 and 7.

B3: CDTb F774G mutant (chymotrypsin-activated oligomer) (complex)
chain: WEDEDLDTDNDNIPDSYERNGYTIKDLIAVKWEDSFAEQGYKKYVSNYLESNTAGDPYTDYEKASGSFDKAIKTEARDPLVAAYPIVGVGMEKLIISTNEHASTDQGKTVSRATTNSKTESNTAGVSVNVGYQNGFTANVTTNYSHTTDNSTAVQDSNGESWNTGLSINKGESAYINANVRYYNTGTAPMYKVTPTTNLVLDGDTLSTIKAQENQIGNNLSPGDTYPKKGLSPLALNTMDQFSSRLIPINYDQLKKLDAGKQIKLETTQVSGNFGTKNSSGQIVTEGNSWSDYISQIDSISASIILDTENESYERRVTAKNLQDPEDKTPELTIGEAIEKAFGATKKDGLLYFNDIPIDESCVELIFDDNTANKIKDSLKTLSDKKIYNVKLERGMNILIKTPTYFTNFDDYNNYPSTWSNVNTTNQDGLQGSANKLNGETKIKIPMSELKPYKRYVFSGYSKDPLTSNSIIVKIKAKEEKTDYLVPEQGYTKFSYEFETTEKDSSNIEITLIGSGTTYLDNLSITELNSTPEILDEPEVKIPTDQEIMDAHKIYFADLNGNPSTGNTYINGMYFAPTQTNKEALDYIQKYRVEATLQYSGFKDIGTKDKEMRNYLGDPNQPKTNYVNLRSYFTGGENIMTYKKLRIYAITPDDRELLVLSVD
notes: as for B2
Regarding B3, the “stoichiometry N” value in [14] was 14 and 7.
